Our source for the percent of the receptor in complex values is publication PMC9832913.

For this experiment, the target named is human A2A adenosine receptor (A2AAR), residues 1-316, N154Q (human) (UniProt P29274). Description: SEC. (Size exclusion chromatography separates by hydrodynamic size, large species first.)
UniProt P29274, sequence (P29274 1-316 N154Q): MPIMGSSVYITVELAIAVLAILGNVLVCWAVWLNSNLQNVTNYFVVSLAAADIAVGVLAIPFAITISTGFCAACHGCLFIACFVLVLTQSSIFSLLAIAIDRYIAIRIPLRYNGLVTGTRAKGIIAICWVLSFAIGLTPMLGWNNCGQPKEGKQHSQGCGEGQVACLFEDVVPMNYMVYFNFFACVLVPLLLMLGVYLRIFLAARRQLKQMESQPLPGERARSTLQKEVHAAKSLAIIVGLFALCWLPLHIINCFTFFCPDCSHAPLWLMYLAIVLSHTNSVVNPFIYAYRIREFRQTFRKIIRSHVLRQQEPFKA

“mini-Gs, an engineered variant of the Gs protein α-subunit”: the percent of the receptor in complex came out at 95%.
